Among the targets are NMBR (UniProt P28336 1-390); NPBWR2 (UniProt P48146 1-333); OPRL1 (UniProt P41146 1-370); P2RY2 (UniProt P41231 1-377); PTGFR (UniProt P43088 1-359); PROKR2 (UniProt Q8NFJ6 1-384); PTHR2 (UniProt P49190 25-550); CALCRL-RAMP3 (UniProt Q16602 23-461; O60896 24-148).
Common to all, as to test: cell-based or functional assay
For the next experiment, the target named is T1, ADRA2C (UniProt P18825 1-462).
T1 sequence (looked up): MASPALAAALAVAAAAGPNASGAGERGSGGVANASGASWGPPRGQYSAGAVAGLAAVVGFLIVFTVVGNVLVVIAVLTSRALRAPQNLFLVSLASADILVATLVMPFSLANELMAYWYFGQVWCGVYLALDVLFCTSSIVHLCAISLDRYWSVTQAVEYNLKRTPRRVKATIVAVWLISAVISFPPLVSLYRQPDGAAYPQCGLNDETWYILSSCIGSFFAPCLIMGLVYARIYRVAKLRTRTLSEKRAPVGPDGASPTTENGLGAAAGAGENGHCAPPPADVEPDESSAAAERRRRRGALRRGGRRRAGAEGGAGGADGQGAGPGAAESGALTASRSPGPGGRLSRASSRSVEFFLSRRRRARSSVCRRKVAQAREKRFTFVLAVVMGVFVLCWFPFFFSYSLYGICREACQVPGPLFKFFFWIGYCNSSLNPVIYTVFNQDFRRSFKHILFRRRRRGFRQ

The next experiment concerns the target T2, CCR10 (UniProt P46092 1-362).
T2 sequence (looked up): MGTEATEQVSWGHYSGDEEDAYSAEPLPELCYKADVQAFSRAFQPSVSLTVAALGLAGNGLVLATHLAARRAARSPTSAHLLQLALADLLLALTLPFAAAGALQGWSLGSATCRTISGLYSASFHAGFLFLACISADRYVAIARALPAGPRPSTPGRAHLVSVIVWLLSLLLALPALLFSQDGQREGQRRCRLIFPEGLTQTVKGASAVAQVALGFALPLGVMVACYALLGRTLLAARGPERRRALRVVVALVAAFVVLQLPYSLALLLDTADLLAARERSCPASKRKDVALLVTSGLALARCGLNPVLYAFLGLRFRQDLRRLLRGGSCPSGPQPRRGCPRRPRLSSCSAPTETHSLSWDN

A further experiment addresses T3, CCR9 (UniProt P51686 1-369, limits assumed).
T3 sequence (looked up): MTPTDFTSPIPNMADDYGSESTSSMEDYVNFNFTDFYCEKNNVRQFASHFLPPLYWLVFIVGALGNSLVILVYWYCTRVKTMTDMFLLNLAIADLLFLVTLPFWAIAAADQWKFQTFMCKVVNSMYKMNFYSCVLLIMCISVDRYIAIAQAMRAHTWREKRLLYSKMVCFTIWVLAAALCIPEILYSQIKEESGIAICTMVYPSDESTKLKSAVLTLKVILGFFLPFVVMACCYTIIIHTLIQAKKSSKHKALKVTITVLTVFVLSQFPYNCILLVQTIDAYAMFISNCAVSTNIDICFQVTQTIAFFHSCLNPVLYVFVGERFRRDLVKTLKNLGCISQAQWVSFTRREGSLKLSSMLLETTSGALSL

A further experiment concerns the target T4, PTGER3 (UniProt P43115 1-390, limits assumed).
T4 sequence (looked up): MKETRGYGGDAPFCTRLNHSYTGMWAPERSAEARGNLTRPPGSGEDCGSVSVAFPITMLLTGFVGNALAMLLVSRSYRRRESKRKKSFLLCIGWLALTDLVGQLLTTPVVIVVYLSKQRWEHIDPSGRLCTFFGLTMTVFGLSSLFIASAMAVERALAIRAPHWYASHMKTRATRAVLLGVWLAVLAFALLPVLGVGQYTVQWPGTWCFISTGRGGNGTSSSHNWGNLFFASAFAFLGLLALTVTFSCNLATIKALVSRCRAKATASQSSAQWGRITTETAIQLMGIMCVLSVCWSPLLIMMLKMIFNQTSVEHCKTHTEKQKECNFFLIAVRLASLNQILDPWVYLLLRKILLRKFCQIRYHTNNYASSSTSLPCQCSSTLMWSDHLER

The target in the next experiment is T5, CCR2 (UniProt P41597-2 1-360, limits assumed).
T5 sequence (looked up): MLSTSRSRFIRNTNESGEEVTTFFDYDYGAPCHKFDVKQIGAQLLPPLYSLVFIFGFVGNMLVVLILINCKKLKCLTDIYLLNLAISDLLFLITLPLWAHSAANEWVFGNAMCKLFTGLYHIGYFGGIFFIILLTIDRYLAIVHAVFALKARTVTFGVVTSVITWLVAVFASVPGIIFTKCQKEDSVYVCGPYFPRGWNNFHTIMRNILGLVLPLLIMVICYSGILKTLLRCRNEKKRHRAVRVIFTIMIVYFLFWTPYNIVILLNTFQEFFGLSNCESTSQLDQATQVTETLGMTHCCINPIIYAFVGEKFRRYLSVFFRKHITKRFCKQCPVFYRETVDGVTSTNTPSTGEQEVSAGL

A further experiment addresses T6, CXCR5 (UniProt P32302 1-372).
T6 sequence (looked up): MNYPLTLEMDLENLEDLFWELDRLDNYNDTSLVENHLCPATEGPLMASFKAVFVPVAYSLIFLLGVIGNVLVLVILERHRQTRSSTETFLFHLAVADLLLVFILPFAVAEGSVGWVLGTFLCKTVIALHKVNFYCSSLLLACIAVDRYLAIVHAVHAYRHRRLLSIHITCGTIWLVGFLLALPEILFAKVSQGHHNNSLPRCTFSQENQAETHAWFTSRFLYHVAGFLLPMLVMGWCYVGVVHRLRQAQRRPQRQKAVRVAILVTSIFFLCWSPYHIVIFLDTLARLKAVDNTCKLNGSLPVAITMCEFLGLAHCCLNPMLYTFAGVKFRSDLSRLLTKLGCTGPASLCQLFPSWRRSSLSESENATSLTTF

The source of these data is US20260184748A1 (University of Pennsylvania, published 2026).

Where no end group is shown, it is not given here.

NMBR, sequence (P28336 whole entry): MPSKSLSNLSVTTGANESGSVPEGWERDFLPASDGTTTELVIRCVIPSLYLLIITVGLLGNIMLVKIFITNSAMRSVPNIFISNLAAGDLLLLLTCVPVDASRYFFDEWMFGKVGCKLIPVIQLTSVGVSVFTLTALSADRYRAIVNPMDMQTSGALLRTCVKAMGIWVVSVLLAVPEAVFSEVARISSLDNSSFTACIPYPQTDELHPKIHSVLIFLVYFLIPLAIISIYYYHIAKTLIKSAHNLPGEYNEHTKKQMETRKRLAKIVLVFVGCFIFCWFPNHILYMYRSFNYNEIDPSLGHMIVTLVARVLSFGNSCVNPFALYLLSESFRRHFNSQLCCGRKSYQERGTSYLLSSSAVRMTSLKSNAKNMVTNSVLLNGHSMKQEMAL
CALCRL-RAMP3, sequence (Q16602 23-461 limits assumed, chain 1 of 2): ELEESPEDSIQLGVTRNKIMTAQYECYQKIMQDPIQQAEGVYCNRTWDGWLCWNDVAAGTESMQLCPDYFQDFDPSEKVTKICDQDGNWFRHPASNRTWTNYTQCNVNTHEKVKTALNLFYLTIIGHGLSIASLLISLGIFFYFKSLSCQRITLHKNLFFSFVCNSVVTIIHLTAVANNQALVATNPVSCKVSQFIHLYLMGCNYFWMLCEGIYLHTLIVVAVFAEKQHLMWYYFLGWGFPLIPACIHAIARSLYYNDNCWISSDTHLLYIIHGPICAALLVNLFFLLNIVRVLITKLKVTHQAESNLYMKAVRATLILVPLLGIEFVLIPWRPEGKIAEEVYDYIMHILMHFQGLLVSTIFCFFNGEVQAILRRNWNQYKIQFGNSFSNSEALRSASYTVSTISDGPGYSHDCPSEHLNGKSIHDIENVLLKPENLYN
CALCRL-RAMP3, sequence (O60896 24-148 limits assumed, chain 2 of 2): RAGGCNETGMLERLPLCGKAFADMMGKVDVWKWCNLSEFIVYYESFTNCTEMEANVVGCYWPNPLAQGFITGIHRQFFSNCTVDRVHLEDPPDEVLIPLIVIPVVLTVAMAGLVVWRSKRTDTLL
PTHR2, sequence (P49190 25-550 limits assumed): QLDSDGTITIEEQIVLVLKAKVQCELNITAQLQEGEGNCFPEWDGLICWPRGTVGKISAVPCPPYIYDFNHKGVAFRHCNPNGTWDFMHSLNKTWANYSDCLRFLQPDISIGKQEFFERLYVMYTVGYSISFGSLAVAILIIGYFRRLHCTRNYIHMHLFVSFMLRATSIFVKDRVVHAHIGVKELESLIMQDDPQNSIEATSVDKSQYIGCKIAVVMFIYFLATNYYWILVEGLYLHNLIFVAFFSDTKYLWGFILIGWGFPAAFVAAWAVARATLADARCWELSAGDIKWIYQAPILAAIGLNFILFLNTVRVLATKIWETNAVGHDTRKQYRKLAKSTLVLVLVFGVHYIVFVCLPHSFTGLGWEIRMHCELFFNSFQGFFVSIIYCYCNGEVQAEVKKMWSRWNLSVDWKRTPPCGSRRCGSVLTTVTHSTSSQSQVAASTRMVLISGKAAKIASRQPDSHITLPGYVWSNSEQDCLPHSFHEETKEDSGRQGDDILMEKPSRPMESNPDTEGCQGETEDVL
P2RY2, sequence (P41231 whole entry): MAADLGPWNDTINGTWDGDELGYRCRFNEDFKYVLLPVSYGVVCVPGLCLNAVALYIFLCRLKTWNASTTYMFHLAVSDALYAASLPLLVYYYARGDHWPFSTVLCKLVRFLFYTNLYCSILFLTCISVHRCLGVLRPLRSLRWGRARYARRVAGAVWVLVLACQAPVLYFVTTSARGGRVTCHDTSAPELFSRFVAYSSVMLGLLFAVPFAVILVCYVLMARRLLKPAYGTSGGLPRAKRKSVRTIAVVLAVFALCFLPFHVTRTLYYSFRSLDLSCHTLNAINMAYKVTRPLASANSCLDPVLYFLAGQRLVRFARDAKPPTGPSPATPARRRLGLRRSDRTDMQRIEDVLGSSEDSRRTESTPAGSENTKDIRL
PROKR2, sequence (Q8NFJ6 whole entry): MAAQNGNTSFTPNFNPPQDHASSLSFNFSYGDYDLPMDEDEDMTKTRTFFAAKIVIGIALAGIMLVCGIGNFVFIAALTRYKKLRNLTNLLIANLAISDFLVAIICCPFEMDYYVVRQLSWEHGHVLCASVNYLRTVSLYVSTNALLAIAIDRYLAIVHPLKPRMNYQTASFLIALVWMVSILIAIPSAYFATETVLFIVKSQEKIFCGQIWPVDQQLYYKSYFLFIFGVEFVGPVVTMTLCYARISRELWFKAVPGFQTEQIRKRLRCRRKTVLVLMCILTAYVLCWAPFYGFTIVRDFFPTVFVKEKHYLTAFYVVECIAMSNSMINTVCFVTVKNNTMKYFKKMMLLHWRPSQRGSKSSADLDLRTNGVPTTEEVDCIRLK
NPBWR2, sequence (P48146 whole entry): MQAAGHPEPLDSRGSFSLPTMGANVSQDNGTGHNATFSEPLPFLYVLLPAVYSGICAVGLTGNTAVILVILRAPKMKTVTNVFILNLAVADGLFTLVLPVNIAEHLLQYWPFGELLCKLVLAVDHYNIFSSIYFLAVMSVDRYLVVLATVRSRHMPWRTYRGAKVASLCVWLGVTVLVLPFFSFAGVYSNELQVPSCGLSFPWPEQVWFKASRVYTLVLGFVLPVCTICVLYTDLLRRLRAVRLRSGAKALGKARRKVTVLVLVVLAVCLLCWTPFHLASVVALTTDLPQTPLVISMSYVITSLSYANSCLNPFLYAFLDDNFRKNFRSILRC
PTGFR, sequence (P43088 whole entry): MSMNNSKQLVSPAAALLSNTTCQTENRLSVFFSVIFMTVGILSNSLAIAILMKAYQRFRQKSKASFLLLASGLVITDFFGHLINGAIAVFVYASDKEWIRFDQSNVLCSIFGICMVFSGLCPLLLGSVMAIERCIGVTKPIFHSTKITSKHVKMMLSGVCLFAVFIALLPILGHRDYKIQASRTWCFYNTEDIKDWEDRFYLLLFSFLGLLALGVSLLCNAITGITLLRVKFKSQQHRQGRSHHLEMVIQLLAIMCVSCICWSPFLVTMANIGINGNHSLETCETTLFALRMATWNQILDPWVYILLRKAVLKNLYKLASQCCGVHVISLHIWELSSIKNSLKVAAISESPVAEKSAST
OPRL1, sequence (P41146 whole entry): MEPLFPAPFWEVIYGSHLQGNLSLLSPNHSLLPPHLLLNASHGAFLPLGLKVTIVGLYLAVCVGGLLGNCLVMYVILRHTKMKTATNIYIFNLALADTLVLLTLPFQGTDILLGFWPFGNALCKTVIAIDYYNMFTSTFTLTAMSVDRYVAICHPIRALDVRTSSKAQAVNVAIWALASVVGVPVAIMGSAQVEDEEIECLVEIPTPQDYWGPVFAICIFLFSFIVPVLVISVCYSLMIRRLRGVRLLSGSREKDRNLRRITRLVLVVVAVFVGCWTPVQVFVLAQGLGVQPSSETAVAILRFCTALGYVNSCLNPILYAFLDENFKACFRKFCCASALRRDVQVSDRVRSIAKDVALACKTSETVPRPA

B1: octadecaneuropeptide (ODN) (peptide)
peptide: QATVGDVNTDRPGLLDLK
modifications: also: synthesised on Rink amide resin, C-terminal amide not given here outright
With B1, the “% Activity, arrestin, antagonist mode, 2.5 uM” value (“% Activity, arrestin” below) is -26.4% in the experiment with ADRA2C; -7.7% with NMBR; -1.1% with NPBWR2; -16.6% with CCR10; -5.6% with OPRL1; -5.2% with P2RY2. The “% Activity, arrestin” value with PTGFR is -8.4%; with CCR9 it was -10.1%; with PROKR2, -17.5%; in the experiment with PTGER3 it was -10%; with CCR2, -15.4%; with PTHR2, 4.5%. In addition, the entries for the “% Activity, arrestin” value in the experiment with CXCR5 and in the experiment with CALCRL-RAMP3 were -18.9% and -3.5%, respectively.
